Measurements published in patent publication US20250235501A1 (UNIVERSITY OF CONNECTICUT, published 2025).

Target: T1, Endogenous TRPM2 of mouse brain and cultured mouse cortical neurons (mouse, UniProt Q91YD4 1-1506)
T1 construct: whole, on cells
Assay: co-IP with anti-TRPM2, western blot, PKCγ/TRPM2 ratio, brain tissue
Experimental: Thus, whether PKC interacts with TRPM2 was investigated.
NP-40 lysis buffer ([…], 150 mM NaCl, 1 mM EDTA, 50 mM Tris, pH=8.0) containing proteinase inhibitors (Sigma-Aldrich, 539131-10VL) and phosphatase inhibitors (Thermal Fisher Scientific, 78428) was used to lyse both cultured cells and frozen brain tissue. For transfected cells, proteins were extracted 36 hours after transfection. Cell and tissue lysate were lysed by ultrasound using an ultrasonic cleaner (Thermal Fisher Scientific) filled with ice-cold water for 30 min. After incubated on ice for 1 h, lysate was centrifuged at 13000 g for 30 min and supernatant was collected. Protein concentration was measured using Pierce™ Rapid Gold BCA Protein Assay Kit (Thermal Fisher Scientific, A53225). 300 μg of protein was taken and diluted using NP-40 lysis buffer to make a total volume of 500 μl. Unused protein was allocated and frozen at −80° C. for future use. Appropriate amount of antibody was added based on instruction. After protein-antibody mixture was incubated on ice for 2 h, 25 μL of pre-washed Protein A/G PLUS-Agarose (Santa Cruz Biotechnology, sc-2003) was added, and the whole mixture was incubated at 4° C. for overnight. Then the mixture was centrifuged at 2500 g for Imin to get agarose beads. […] Then samples were ready for western blotting analysis.

T1 sequence (Q91YD4 whole entry): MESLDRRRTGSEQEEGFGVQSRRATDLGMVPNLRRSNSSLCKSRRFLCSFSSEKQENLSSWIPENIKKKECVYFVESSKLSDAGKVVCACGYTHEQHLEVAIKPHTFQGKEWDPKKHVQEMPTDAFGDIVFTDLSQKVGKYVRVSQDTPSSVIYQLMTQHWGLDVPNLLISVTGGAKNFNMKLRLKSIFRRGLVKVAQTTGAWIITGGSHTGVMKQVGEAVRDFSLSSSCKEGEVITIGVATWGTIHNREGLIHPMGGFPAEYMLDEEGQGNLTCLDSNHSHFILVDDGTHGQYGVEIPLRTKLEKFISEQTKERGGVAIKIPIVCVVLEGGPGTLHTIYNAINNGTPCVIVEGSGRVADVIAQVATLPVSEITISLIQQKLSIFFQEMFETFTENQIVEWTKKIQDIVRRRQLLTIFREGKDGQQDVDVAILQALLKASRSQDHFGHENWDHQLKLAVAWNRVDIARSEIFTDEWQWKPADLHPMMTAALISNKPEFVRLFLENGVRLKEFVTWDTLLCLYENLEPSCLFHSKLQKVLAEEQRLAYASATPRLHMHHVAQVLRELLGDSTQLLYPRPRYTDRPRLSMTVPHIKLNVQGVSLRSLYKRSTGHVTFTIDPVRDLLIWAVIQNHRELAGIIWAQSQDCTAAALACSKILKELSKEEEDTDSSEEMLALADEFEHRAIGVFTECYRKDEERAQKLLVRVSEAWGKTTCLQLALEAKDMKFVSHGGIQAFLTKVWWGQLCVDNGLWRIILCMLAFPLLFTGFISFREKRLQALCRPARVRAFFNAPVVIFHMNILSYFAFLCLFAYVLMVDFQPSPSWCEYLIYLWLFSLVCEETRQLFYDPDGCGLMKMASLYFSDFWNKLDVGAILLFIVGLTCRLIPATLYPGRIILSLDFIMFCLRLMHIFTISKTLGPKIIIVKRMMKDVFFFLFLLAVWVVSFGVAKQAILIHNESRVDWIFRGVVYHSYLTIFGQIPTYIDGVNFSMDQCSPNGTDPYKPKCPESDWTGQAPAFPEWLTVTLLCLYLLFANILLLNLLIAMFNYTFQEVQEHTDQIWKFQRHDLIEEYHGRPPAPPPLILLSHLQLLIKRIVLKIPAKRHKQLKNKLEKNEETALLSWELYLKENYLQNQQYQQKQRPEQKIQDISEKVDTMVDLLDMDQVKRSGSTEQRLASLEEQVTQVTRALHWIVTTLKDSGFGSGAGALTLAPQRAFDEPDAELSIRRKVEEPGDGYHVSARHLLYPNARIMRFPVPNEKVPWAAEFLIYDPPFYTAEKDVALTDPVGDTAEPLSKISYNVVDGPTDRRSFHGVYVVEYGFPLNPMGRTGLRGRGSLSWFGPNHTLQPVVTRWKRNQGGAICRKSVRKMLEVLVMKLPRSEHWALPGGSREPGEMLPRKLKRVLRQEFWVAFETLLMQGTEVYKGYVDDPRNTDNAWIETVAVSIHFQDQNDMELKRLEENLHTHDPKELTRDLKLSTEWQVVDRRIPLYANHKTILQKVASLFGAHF

amount of PKCγ pulled down by anti-TRPM2, MCAO against sham mice: ~1.5 fold
B1: Endogenous PKCγ of mouse brain and cultured mouse cortical neurons (enzyme)
chain: not shown
notes: whole, on cells; also called neuron-specific PKC
